Test results taken from patent EP4692351A1, “ANTI-CD25 ANTIBODY AND ANTI-CD25 ANTIBODY-DRUG CONJUGATE” (priority 2023, dated 2024).
Values belong to the molecule of their own block, whether it stands above or below them.

How the values were obtained:
human CD25 [1] = biological target: T1, human CD25 (human, UniProt P01589 22-272); test: cell-based or functional assay
T1 construct: Expressed on transiently transfected CHO-K1 cells in the Cell-ELISA; Endogenous on human T cells, PBMC, Karpas-299 and EoL-1 in the functional assays; also called hCD25; IL-2 receptor alpha chain
T1 sequence: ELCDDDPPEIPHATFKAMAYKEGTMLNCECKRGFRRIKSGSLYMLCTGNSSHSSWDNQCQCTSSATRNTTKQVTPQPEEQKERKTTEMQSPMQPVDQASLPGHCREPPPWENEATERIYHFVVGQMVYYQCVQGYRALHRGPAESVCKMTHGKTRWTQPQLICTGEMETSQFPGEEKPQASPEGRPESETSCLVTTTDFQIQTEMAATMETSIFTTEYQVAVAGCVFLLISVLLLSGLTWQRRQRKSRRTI

mouse CD25 [2] = biological target: T2, mouse CD25 (mouse, UniProt P01590 22-268); test: cell-based or functional assay
T2 construct: Expressed on transiently transfected CHO-K1 cells in the Cell-ELISA; Endogenous on CTLL-2 cells and mouse pan T cells in the functional assays; also called mCD25; pCMV3-mCD25 (expression vector)
T2 sequence: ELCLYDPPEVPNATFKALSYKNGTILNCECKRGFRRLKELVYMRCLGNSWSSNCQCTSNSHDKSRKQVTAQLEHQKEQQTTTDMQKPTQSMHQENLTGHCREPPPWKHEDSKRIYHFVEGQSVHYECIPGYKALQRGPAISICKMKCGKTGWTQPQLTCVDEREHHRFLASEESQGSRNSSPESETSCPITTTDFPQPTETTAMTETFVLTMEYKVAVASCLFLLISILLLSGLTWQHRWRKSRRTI

mouse CD25 [3] = biological target: T2, mouse CD25; test: Cell-ELISA on transfected CHO-K1 cells, anti-human IgG-HRP, A450
cynomolgus monkey CD25 [4] = biological target: T3, cynomolgus monkey CD25 (cynomolgus monkey, UniProt Q5MNY4 22-272 (rhesus entry)); test: Cell-ELISA on transfected CHO-K1 cells, anti-human IgG-HRP, A450; 20 to 0.001 µg/mL
T3 construct: Expressed on transiently transfected CHO-K1 cells; also called cCD25; pCI-cCD25 (expression vector)
T3 chain: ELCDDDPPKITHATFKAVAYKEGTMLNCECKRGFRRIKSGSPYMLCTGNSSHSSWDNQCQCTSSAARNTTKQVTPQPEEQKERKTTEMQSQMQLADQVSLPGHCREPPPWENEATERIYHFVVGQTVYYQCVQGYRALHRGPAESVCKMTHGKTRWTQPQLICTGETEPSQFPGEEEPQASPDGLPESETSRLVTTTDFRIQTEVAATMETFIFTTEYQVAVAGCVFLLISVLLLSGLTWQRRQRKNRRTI

[5] = biological target: T4, CD25 antigen used as analyte in the Biacore measurement (Homo sapiens (Human), UniProt P01589 22-213, limits assumed); test: SPR, Biacore T200, antibody captured on anti-human IgG (Fc) on CM5, antigen as analyte, 1:1 binding model
T4 construct: also called the antigen
T4 sequence: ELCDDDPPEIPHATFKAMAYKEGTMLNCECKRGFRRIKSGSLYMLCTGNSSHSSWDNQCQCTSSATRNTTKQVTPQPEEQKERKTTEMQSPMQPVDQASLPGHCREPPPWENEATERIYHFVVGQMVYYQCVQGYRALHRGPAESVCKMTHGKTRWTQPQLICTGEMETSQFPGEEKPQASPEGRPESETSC

cynomolgus monkey CD25 [6] = biological target: T3, cynomolgus monkey CD25; test: Cell-ELISA on transfected CHO-K1 cells, anti-human IgG-HRP, A450; 80 to 0.001 µg/mL
mouse CD25 [7] = biological target: T2, mouse CD25; test: Cell-ELISA on transfected CHO-K1 cells, anti-rat IgG-HRP, A450
cynomolgus monkey CD25 [8] = biological target: T3, cynomolgus monkey CD25; test: Cell-ELISA on transfected CHO-K1 cells, anti-rat IgG-HRP, A450; 0.02 to 10 µg/mL
human CD25 [9] = biological target: T1, human CD25; test: Cell-ELISA on transfected CHO-K1 cells, anti-rat IgG-HRP, A450
cynomolgus monkey CD25 [10] = biological target: T3, cynomolgus monkey CD25; test: as above
human CD25 [11] = biological target: T1, human CD25; test: Cell-ELISA on transfected CHO-K1 cells, anti-human IgG-HRP, A450
cynomolgus monkey CD25 [12] = biological target: T3, cynomolgus monkey CD25; test: as above

- amount of pSTAT5 in human PBMC with IL-2 (AlphaLISA), % of hIgG1 control group (human CD25 [1]): 0.01%
- amount of pSTAT5 in human PBMC with IL-2 (AlphaLISA), % of human IgG1 control group (human CD25 [1]): 1.2%
- amount of pSTAT5 in human PBMC with IL-2 (AlphaLISA), % of rat IgG2a control group; antibody 20 µg/mL (human CD25 [1]): 1%
Molecule: basiliximab (antibody)

- amount of pSTAT5 in mouse CTLL-2 cells with IL-2 (AlphaLISA), % of rat IgG2a control group; antibody solution 20 µg/mL (mouse CD25 [2]): 48%
Molecule: PC61_hIgG1LALA (antibody)

- amount of pSTAT5 in human PBMC with IL-2 (AlphaLISA), % of rat IgG2a control group; antibody 20 µg/mL (human CD25 [1]): 103%
Molecule: 7G7B6 (antibody)

Molecule: Purified NA/LE Rat Anti-Mouse CD25 (PC61 antibody)
- cell survival rate of mouse pan T cells with Fab-ZAP rat (saporin), % of control antibody; 60 ng/mL (mouse CD25 [2]): 59%
- cell survival rate of mouse pan T cells with Fab-ZAP rat (saporin), % of control antibody; 300 ng/mL (mouse CD25 [2]): 39%
- cell survival rate of mouse pan T cells with Fab-ZAP rat (saporin), % of control antibody; 1500 ng/mL (mouse CD25 [2]): 31%
- cell survival rate of mouse pan T cells with Fab-ZAP rat (saporin), % of control antibody; 7500 ng/mL (mouse CD25 [2]): 29%

- binding result (mouse CD25 [3]): no binding (tested: 20 to 0.001 µg/mL)
- binding result (cynomolgus monkey CD25 [4]): binds
- Kd [5]: 2.9 nM
B1: hMAb1A antibody (antibody, human IgG1, kappa, V domains shown)
VH: EVQLVESGGGLVQPGGSLRLSCAASGFTFNNYYMVWVRQAPGKGLEWVAYISTGGGTTYYRESVKGRFTISRDNSKSTLYLQMNSLRAEDTAVYYCTTSVYFSDGSSHYDGEWFAYWGQGTLVTVSS
VL: DIVMTQSPDSLAVSLGERATINCKASESVSTRMHWYQQKPGQPPKLLIYKASNLASGVPARFSGSGSGTDFTLTISSLQAEDVAVYYCQQSWNGWAFGQGTKVEIKR
notes: Humanized MAb1, human IgG1 / kappa; also called humanized antibody hMAb1A; hMAb1 (in places)

- binding result (cynomolgus monkey CD25 [4]): binds
- Kd [5]: 5.7 nM
B2: hMAb1B antibody (antibody, human IgG1, kappa, V domains shown)
VH: EVQLVESGGGLVQPGGSLRLSCAASGFTFNNYYMVWVRQAPGKGLEWVAYISTGGGTTYYADSVKGRFTISRDNSKSTLYLQMNSLRAEDTAVYYCTTSVYFSDGSSHYDGEWFAYWGQGTLVTVSS
VL: EIVLTQSPGTLSLSPGERATLSCKASESVSTRMHWYQQKPGQAPRLLIYKASNLASGVPARFSGSGSGTDFTLTISRLEPEDFAVYFCQQSWNGWAFGQGTKVEIKR
notes: Humanized MAb1, human IgG1 / kappa; also called humanized antibody hMAb1B

- binding result (mouse CD25 [3]): no binding (tested: 80 to 0.001 µg/mL)
- binding result (cynomolgus monkey CD25 [6]): binds
B3: cMAb1_hIgG1LALA antibody (antibody, V domains shown)
VH: EVQLVESGGGLVQPGRSLKLSCAASGFTFNNYYMVWVRQAPTKGLEWVAYISTGGGTTYYRESVKGRFTISRDNAKSTLYLQMDSLRSEDTATYYCTTSVYFSDGSSHYDGEWFAYWGQGTLVTVSS
VL: DTVLTQSPALAVSPGERVTISCKASESVSTRMHWYQQKPGQQPKLLIYKASNLASGVPARFSGSGSGTDFTLTIDPVEADDTATYFCQQSWNGWAFGGGTKLELKR
notes: Chimeric: rat MAb1 variable regions, human IgG1 LALA heavy constant region, human kappa constant region; also called human IgG1LALA chimeric MAb1

- binding result (mouse CD25 [7]): no binding (tested: up to 10 µg/mL)
- binding result (cynomolgus monkey CD25 [8]): binds
B4: MAb1 antibody (antibody, V domains shown)
VH: EVQLVESGGGLVQPGRSLKLSCAASGFTFNNYYMVWVRQAPTKGLEWVAYISTGGGTTYYRESVKGRFTISRDNAKSTLYLQMDSLRSEDTATYYCTTSVYFSDGSSHYDGEWFAYWGQGTLVTVSS
VL: DTVLTQSPALAVSPGERVTISCKASESVSTRMHWYQQKPGQQPKLLIYKASNLASGVPARFSGSGSGTDFTLTIDPVEADDTATYFCQQSWNGWAFGGGTKLELKR
notes: Rat monoclonal antibody from a hybridoma

- binding result (human CD25 [9]): no binding (tested: up to 10 µg/mL)
- binding result (cynomolgus monkey CD25 [10]): no binding (tested: up to 10 µg/mL)
B5: MAb2 antibody (antibody, V domains shown)
VH: QVKLLQSGAALEKPGASVKMSCKASGYTFTDYWVIWVKQSHGKSLEWIGEIYPNSGATNFNAKFKGKATLTVDKSTSTAYMELSRLTSEDSAIYYCTTYDFDYWGQGVMVTVSS
VL: DVVLTQTPPTLSATIGQSVSISCRSSQSLSHTNGNTYLYWLLQRPGQPPQLLIYFVSRLESGVPNRFSGSGSGTDFTLKISGVEAEDLGLYYCVQSTHVPNTFGAGTKLELKR
notes: Rat monoclonal anti-mouse CD25 antibody from a hybridoma

- binding result (human CD25 [11]): no binding (tested: 80 to 0.001 µg/mL)
- binding result (cynomolgus monkey CD25 [12]): no binding (tested: 80 to 0.001 µg/mL)
B6: cMAb2_hIgG1LALA antibody (antibody, V domains shown)
VH: QVKLLQSGAALEKPGASVKMSCKASGYTFTDYWVIWVKQSHGKSLEWIGEIYPNSGATNFNAKFKGKATLTVDKSTSTAYMELSRLTSEDSAIYYCTTYDFDYWGQGVMVTVSS
VL: DVVLTQTPPTLSATIGQSVSISCRSSQSLSHTNGNTYLYWLLQRPGQPPQLLIYFVSRLESGVPNRFSGSGSGTDFTLKISGVEAEDLGLYYCVQSTHVPNTFGAGTKLELKR
notes: 21-239 is used here; also called human IgG1LALA chimeric MAb2
